Biological target: the molecule itself
Assay: atomic force microscopy

B1: B. stearothermophilus tryptophanyl-tRNA synthetase (TrpRS) (enzyme, UniProt P00953 1-328, looked up)
chain: MKTIFSGIQPSGVITIGNYIGALRQFVELQHEYNCYFCIVDQHAITVWQDPHELRQNIRRLAAKYLAVGIDPTQATLFIQSEVPAHAQAAWMLQCIVYIGELERMTQFKEKSAGKEAVSAGLLTYPPLMAADILLYNTDIVPVGEDQKQHIELTRDLAERFNKRYGELFTIPEARIPKVGARIMSLVDPTKKMSKSDPNPKAYITLLDDAKTIEKKIKSAVTDSEGTIRYDKEAKPGISNLLNIYSTLSGQSIEELERQYEGKGYGVFKADLAQVVIETLRPIQERYHHWMESEELDRVLDEGAEKANRVASEMVRKMEQAMGLGRRR
Kd: 5 nM

Source: doi:10.1101/591495 (bioRxiv, 2019)
